Experimental data published in paper PMC4679584.

Target: tumor suppressor gene 101 (TSG101) tagged with eYFP (UniProt Q99816)
Test: FRET or BRET

Chain of UniProt Q99816 (Q99816 whole entry): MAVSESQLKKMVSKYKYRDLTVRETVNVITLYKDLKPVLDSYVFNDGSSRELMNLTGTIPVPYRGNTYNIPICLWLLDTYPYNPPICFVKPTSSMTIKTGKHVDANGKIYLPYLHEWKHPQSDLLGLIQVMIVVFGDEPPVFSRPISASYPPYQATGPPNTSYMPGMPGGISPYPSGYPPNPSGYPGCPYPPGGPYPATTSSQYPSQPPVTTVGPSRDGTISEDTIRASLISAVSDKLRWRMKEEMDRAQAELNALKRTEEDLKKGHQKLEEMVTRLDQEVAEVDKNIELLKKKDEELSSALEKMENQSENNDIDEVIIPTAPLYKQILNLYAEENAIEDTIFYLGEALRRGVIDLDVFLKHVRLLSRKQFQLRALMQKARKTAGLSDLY

wild-type HEV ORF3 protein (Kernow-C1 P6, genotype 3) tagged with eCFP (natural protein)
FRET efficiency: 21.5%
